From US20170247448A1 (INTRINSIC LIFESCIENCES, published 2017)

B1: BAP070-hum01 (antibody, IgG1, V domains shown)
VH: QVQLVQSGAEVKKPGASVKVSCKASGYTFTNYGMNWVRQARGQRLEWIGWINTYTGEPTYADDFKGRLTISKDTSKNQVVLTMTNMDPVDTATYYCTTYATSWYWGQG
VL: DIQMTQSPSSLSASVGDRVTITCRASESVDSYGNSFMHWYQQKPGQAPRLLIYRASNLESGVPSRFSGSGSGTDFTFTISSLQPEDIATYYCQQSNEDLTFG
notes: Expressed as soluble IgG1 in CHO cells, tested as supernatant; The entries stop inside FR4 (...WGQG / ...FG); also called humanized hit 1
B2: BAP070-hum05 (antibody, IgG1, V domains shown)
VH: EVQLVQSGAEVKKPGESLRISCKGSGYTFTNYGMNWIRQPPGKGLEWIGWINTYTGEPTYADDFKGRVTISADKSISTAYLQWSSLKASDTAMYYCTTYATSWYWGQG
VL: DIQMTQSPSSLSASVGDRVTITCRASESVDSYGNSFMHWYQQKPGQAPRLLIYRASNLESGVPSRFSGSGSGTDFTFTISSLQPEDIATYYCQQSNEDLTFG
notes: Expressed as soluble IgG1 in CHO cells, tested as supernatant; The entries stop inside FR4
B3: BAP070-hum03 (antibody, IgG1, V domains shown)
VH: QVQLVQSGAEVKKPGASVKVSCKASGYTFTNYGMNWVRQATGQGLEWMGWINTYTGEPTYADDFKGRFVFSLDTSVSTAYLQICSLKAEDTAVYYCTTYATSWYWGQG
VL: AIQLTQSPSSLSASVGDRVTITCRASESVDSYGNSFMHWYQQKPGQAPRLLIYRASNLESGVPSRFSGSGSGTDFTFTISSLQPEDIATYYCQQSNEDLTFG
notes: as for B2
B4: BAP070-hum04 (antibody, V domains shown)
VH: QVQLVQSGAEVKKPGASVKVSCKASGYTFTNYGMNWVRQARGQRLEWIGWINTYTGEPTYADDFKGRLTISKDTSKNQVVLTMTNMDPVDTATYYCTTYATSWYWGQG
VL: AIQLTQSPSSLSASVGDRVTITCRASESVDSYGNSFMHWFQQRPGQSPRRLIYRASNLESGIPPRFSGSGYGTDFTLTINNIESEDAAYYFCQQSNEDLTFG
notes: as for B2
B5: BAP070-hum02 (antibody, IgG1, V domains shown)
VH: QVQLVQSGAEVKKPGASVKVSCKASGYTFTNYGMNWVRQARGQRLEWIGWINTYTGEPTYADDFKGRLTISKDTSKNQVVLTMTNMDPVDTATYYCTTYATSWYWGQG
VL: AIQLTQSPSSLSASVGDRVTITCRASESVDSYGNSFMHWYQQKPGKAPKLLIYRASNLESGIPARFSGSGSGTEFTLTISSLQSEDFAVYYCQQSNEDLTFG
notes: as for B2
B6: BAP070-hum06 (antibody, IgG1, V domains shown)
VH: EVQLVQSGAEVKKPGESLRISCKGSGYTFTNYGMNWIRQPPGKGLEWIGWINTYTGEPTYADDFKGRVTISADKSISTAYLQWSSLKASDTAMYYCTTYATSWYWGQG
VL: AIQLTQSPSSLSASVGDRVTITCRASESVDSYGNSFMHWYQQKPGQAPRLLIYRASNLESGVPSRFSGSGSGTDFTFTISSLQPEDIATYYCQQSNEDLTFG
notes: as for B2
B7: BAP070-01 (human-mouse chimeric MAb 583) (antibody, human IgG1, kappa, V domains shown)
VH: QIQLVQSGPELKKPGETVKISCKASGYTFTNYGMNWVKQAPGKGLKWMGWINTYTGEPTYADDFKGRFAFSLETSASTAYLQINNLKNEDTATYFCTTYATSWYWGQGTLVTVSS
VL: DIVLTQSPASLAVSLGQRATISCRASESVDSYGNSFMHWYQQKPGQPPKLLIYRASNLESGIPARFSGSGSRTDFTLTINPVEADDVATYYCQQSNEDLTFGQGTKVEIKR
notes: used as CHO cell supernatant; also called BAP070-1

How the values were obtained:
[1] = target: T1, Human hepcidin peptide (hepcidin-25) (human); assay: titration affinity ELISA, hepcidin 100 ng/well on Nunc Immobilizer Amino plate; antibody 0 ng/ml (blank)
T1 construct: Synthetic 25 aa peptide; also called hep-25; Hep-25
T1 peptide: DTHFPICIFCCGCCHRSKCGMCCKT
Method: (§1) FIGS. 17A-C. Titration affinity ELISA of humanized hits. FIG. 17A: Assay layout. CHO cells were seeded in 6 well plates, transfected with BAP070-01 (recombinant chimera), BAP070-01 humanized hits or vector only using BioAtla's transfection protocol and cultured at 37° C. in DMEM with 10% serum. Supernatants were collected at 48 hours post-transfection. Concentration of IgG in the supernatant was determined using BioAtla's quantitation ELISA. […] Vector only supernatant (column 7) was used as negative control. Bound antibodies were detected with anti-human IgG conjugated with HRP (1:2500). The reactions were stopped with 1 N HCl at 1.5 minutes after TMB was added to the wells and read immediately. OD 450 nm value of the reactions was measure with Molecular Device SPECTRAMAX® Plus. FIG. 17B: OD 450 nm value of the reactions measured with Molecular Device SPECTRAMAX® Plus. FIG. 17C: SOFTMAX® graph of […] data (Brown triangle: BAP070-01 recombinant chimeric antibody). X axis: Antibody concentration in ng/ml. Y axis: OD 450 nm values

[2] = target: T1, Human hepcidin peptide (hepcidin-25); assay: titration affinity ELISA, hepcidin 100 ng/well on Nunc Immobilizer Amino plate, CHO supernatant; antibody 25 ng/ml
Method: as §1

[3] = target: T1, Human hepcidin peptide (hepcidin-25); assay: titration affinity ELISA, hepcidin 100 ng/well on Nunc Immobilizer Amino plate, CHO supernatant; antibody 100 ng/ml
Method: as §1

[4] = target: T1, Human hepcidin peptide (hepcidin-25); assay: titration affinity ELISA, hepcidin 100 ng/well on Nunc Immobilizer Amino plate, CHO supernatant; antibody 12.5 ng/ml
Method: as §1

[5] = target: T1, Human hepcidin peptide (hepcidin-25); assay: titration affinity ELISA, hepcidin 100 ng/well on Nunc Immobilizer Amino plate, CHO supernatant; antibody 1.56 ng/ml
Method: as §1

[6] = target: T1, Human hepcidin peptide (hepcidin-25); assay: titration affinity ELISA, hepcidin 100 ng/well on Nunc Immobilizer Amino plate, CHO supernatant; antibody 6.25 ng/ml
Method: as §1

[7] = target: T1, Human hepcidin peptide (hepcidin-25); assay: titration affinity ELISA, hepcidin 100 ng/well on Nunc Immobilizer Amino plate, CHO supernatant; antibody 3.13 ng/ml
Method: as §1

[8] = target: T1, Human hepcidin peptide (hepcidin-25); assay: titration affinity ELISA, hepcidin 100 ng/well on Nunc Immobilizer Amino plate, CHO supernatant; antibody 50 ng/ml
Method: as §1

Row | Binder | OD 450 nm [1] | OD 450 nm [2] | OD 450 nm [3] | OD 450 nm [4] | OD 450 nm [5] | OD 450 nm [6] | OD 450 nm [7] | OD 450 nm [8]
1 | B1 | 0.05 OD450 | 2.83 OD450 | 3.3 OD450 | 2.26 OD450 | 0.827 OD450 | 2.05 OD450 | 1.29 OD450 | 3.02 OD450
2 | B2 | 0.037 OD450 | 2.63 OD450 | 3.11 OD450 | 1.94 OD450 | 0.59 OD450 | 1.48 OD450 | 0.949 OD450 | 2.85 OD450
3 | B3 | 0.051 OD450 | 2.62 OD450 | 3.27 OD450 | 1.95 OD450 | 0.564 OD450 | 1.6 OD450 | 0.925 OD450 | 2.93 OD450
4 | B4 | 0.045 OD450 | 2.81 OD450 | 3.35 OD450 | 2.33 OD450 | 0.827 OD450 | 2 OD450 | 1.38 OD450 | 2.99 OD450
5 | B5 | 0.048 OD450 | 2.77 OD450 | 3.31 OD450 | 2.32 OD450 | 0.804 OD450 | 1.85 OD450 | 1.28 OD450 | 2.98 OD450
6 | B6 | 0.042 OD450 | 2.69 OD450 | 3.25 OD450 | 2.12 OD450 | 0.75 OD450 | 1.68 OD450 | 1.15 OD450 | 3.06 OD450
7 | B7 | 0.05 OD450 | 2.57 OD450 | 3.33 OD450 | 1.8 OD450 | 0.492 OD450 | 1.32 OD450 | 0.793 OD450 | 3 OD450
